According to publication PMC10941009, “Structural basis for specific DNA sequence recognition by the transcription factor NFIL3” (The Journal of Biological Chemistry, 2024):

Tests used:
NFIL3 bZIP (long) = target: T1, NFIL3 bZIP (long) (human, UniProt Q16649 65-161); assay: ITC; ITC: 20 mM Tris pH 7.5, 150 mM NaCl, 25 °C; EMSA: same buffer, 4 °C, 6% native gel in 0.5x TBE; details: protein: recombinant, tags: His6-SUMO removed by TEV, chain copies: 2, blunt
T1 sequence: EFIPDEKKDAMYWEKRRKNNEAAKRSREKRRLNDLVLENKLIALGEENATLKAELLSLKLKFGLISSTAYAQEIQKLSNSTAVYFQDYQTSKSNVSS

C/EBPζ bZIP = C/EBPζ bZIP (human, UniProt P35638 88-162); assay: as above; details: protein: recombinant; tags: His6-SUMO removed by TEV; chain copies: 2; blunt
C/EBPα bZIP = C/EBPα bZIP (human, UniProt P49715 281-340); assay: as above; details: protein: recombinant; tags: His6-SUMO removed by TEV; chain copies: 2; blunt
C/EBPα bZIP, sequence (P49715 281-340): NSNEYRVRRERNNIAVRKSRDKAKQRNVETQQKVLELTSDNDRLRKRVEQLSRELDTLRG

C/EBPβ bZIP = C/EBPβ bZIP (human, UniProt P17676 259-336); assay: as above; details: protein: recombinant; tags: His6-SUMO removed by TEV; chain copies: 2; blunt
C/EBPβ bZIP, sequence (P17676 259-336): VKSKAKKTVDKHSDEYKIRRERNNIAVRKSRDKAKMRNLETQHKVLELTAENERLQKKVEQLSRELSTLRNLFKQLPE

NFIL3 bZIP (short) = target: T2, NFIL3 bZIP (short) (human, UniProt Q16649 65-136); assay: as above; details: protein: recombinant; tags: His6-SUMO removed by TEV; chain copies: 2; blunt
T2 sequence: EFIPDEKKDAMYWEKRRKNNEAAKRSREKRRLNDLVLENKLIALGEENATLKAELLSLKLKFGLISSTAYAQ

[1] = target: the molecule itself; assay: SEC; gel filtration chromatography of the recombinant C/EBPζ bZIP domain; conditions not told for this protein
[2] = target: the molecule itself; assay: SEC; Superdex 200 10/300 GL, 20 mM Tris pH 7.5, 150 mM NaCl; NFIL3 bZIP domain WT 2 mg/ml apo and NFIL3 mutants, against protein standard

B1: ccgCGTAA (dsDNA)
DNA 1: CACCGCGTAATG
DNA 2: CATTACGCGGTG
Kd (NFIL3 bZIP (long)): 6890 ± 340 nM

B2: cTACGTAA (dsDNA)
DNA 1: CACTACGTAATG
DNA 2: CATTACGTAGTG
Kd (NFIL3 bZIP (long)): 2430 ± 150 nM

B3: TGATGTAA (dsDNA)
DNA 1: GATGATGTAATC
DNA 2: GATTACATCATC
binding result (C/EBPζ bZIP): no binding

B4: TTGCGCAA (dsDNA)
DNA 1: CATTGCGCAATG
DNA 2: CATTGCGCAATG
Kd (C/EBPα bZIP): 480 ± 70 nM
Kd (NFIL3 bZIP (long)): 810 ± 70 nM
binding result (C/EBPζ bZIP): no binding
Kd (C/EBPβ bZIP): 69 ± 9 nM

B5: mutated flanking DNA (dsDNA)
DNA 1: CGTTACGTAATG
DNA 2: CATTACGTAACG
Kd (NFIL3 bZIP (long)): 67 ± 14 nM

B6: T/G mismatch TTAt (dsDNA)
DNA 1: CATTATGTAATG
DNA 2: CATTACGTAATG
modifications: T/G mismatch at position 6 of strand 1
Kd (NFIL3 bZIP (long); one T/G mismatch): 290 ± 30 nM

B7: TTgCGTAA (dsDNA)
DNA 1: CATTGCGTAATG
DNA 2: CATTACGCAATG
Kd (NFIL3 bZIP (long)): 180 ± 20 nM

B8: TTACGTAA (dsDNA)
DNA 1: CATTACGTAATG
DNA 2: CATTACGTAATG
Kd (NFIL3 bZIP (short)): 52 ± 17 nM
Kd (C/EBPα bZIP): 350 ± 30 nM
Kd (NFIL3 bZIP (long)): 42 ± 7 nM
binding result (C/EBPζ bZIP): no binding
Kd (C/EBPβ bZIP): 18 ± 3 nM

B9: TTAtGTAA (dsDNA)
DNA 1: CATTATGTAATG
DNA 2: CATTACATAATG
Kd (NFIL3 bZIP (long)): 520 ± 30 nM

B10: TTAmCGTAA (dsDNA)
DNA 1: CATTACGTAATG
DNA 2: CATTACGTAATG
modifications: 5-methyl-C at position 6 of the printed strand; second strand not printed (palindrome, methylation of it not stated)
Kd (NFIL3 bZIP (long)): 590 ± 89 nM

B11: TcACGTAA (dsDNA)
DNA 1: CATCACGTAATG
DNA 2: CATTACGTGATG
Kd (NFIL3 bZIP (long)): 1660 ± 110 nM

B12: TTAaGTAA (dsDNA)
DNA 1: CATTAAGTAATG
DNA 2: CATTACTTAATG
Kd (NFIL3 bZIP (long)): 120 ± 10 nM

B13: C/EBPζ bZIP domain (aa 88-162) (domain or fragment, human, UniProt P35638 88-162, looked up)
chain: SSLAQEEEEEDQGRTRKRKQSGHSPARAGKQRMKEKEQENERKVAQLAEENERLKQEIERLTREVEATRRALIDR
notes: human C/EBPζ, bZIP domain, residues 88-162; source: E. coli BL21 (DE3), purified (Ni-NTA, TEV, anion exchange, gel filtration); not shown: His6, N-terminal, cleaved; SUMO, N-terminal, cleaved
stoichiometry N [1]: 2

B14: NFIL3 bZIP domain (aa 65-161) (domain or fragment, human, UniProt Q16649 65-161, looked up)
chain: EFIPDEKKDAMYWEKRRKNNEAAKRSREKRRLNDLVLENKLIALGEENATLKAELLSLKLKFGLISSTAYAQEIQKLSNSTAVYFQDYQTSKSNVSS
notes: human NFIL3, bZIP domain, residues 65-161 (canonical bZIP helix aa 73-126 and an extra short helix aa 131-146); The methods of the size-exclusion run say only 'NFIL3 bZIP domain WT'; also called E4BP4; nuclear factor interleukin-3 regulated protein; source: E. coli BL21 (DE3), purified (Ni-NTA, TEV, anion exchange, gel filtration); not shown: His6, N-terminal, cleaved; SUMO, N-terminal, cleaved
stoichiometry N [2]: 2

B15: NFIL3 bZIP domain N112D mutant (domain or fragment, human, UniProt Q16649 65-161, looked up)
chain: EFIPDEKKDAMYWEKRRKNNEAAKRSREKRRLNDLVLENKLIALGEEDATLKAELLSLKLKFGLISSTAYAQEIQKLSNSTAVYFQDYQTSKSNVSS
notes: human NFIL3, bZIP domain, residues 65-161 with N112D; also called NFIL3 (N112D); source: E. coli BL21 (DE3), purified as the wild-type protein; not shown: His6, N-terminal, cleaved; SUMO, N-terminal, cleaved
stoichiometry N [2]: 2
